Assay results as given in patent publication US11780895B2, “Targeted DNA demethylation and methylation” (The Jackson Laboratory, priority 2016, dated 2023).

Legend:
[1] = system: hMLH1 promoter; assay: Bisulfite conversion and sequencing of the hMLH1 promoter region; format: cell-based, human; conditions: untransfected HEK293T cells treated for 6 days
Source text: Casilio-mediated delivery of demethylation enzymes alters methylation state of targeted genomic locus. Evidence that the shown Casilio-ME-induced activation of hMLH1 transcription is a result of TET1-mediated cytosine demethylation within the targeted promoter region came from DNA sequencing of hMLH1 promoter after bisulfite conversion. Bisulfite treatment of genomic DNA deaminates unmethylated cytosines to produce uracils that are subsequently replicated as thymine. However, methylated cytosines are protected from conversion to uracils, thus allowing one to determine cytosine methylation states at single-nucleotide resolution by direct sequencing.
To assess changes in methylation states of CpG island within hMLH1 promoter region after Casilio-ME-mediated transcription activation, time course experiment were carried out where cells were collected 3, 4, 5, and 6 days post transfection, for analysis of cytosine methylation as well as transcription activation, and protein expression. HEK293T were transfected with Casilio-ME components that includes Ct-fusion PUFa-TET1 effector and a combination of 2 sgRNAs (RNA guides 3 and 7).
Cell culture and transfection. […]

[2] = system: TetO::tdTomato transgene; assay: TetO::tdTomato transgene activation measured by FACS; format: cell-based; conditions: with dCas9 and sgTetO-PBS; compared with 5-10 copies
Source text: In particular, to test whether appending PBS to the 3′ end of sgRNA affects sgRNA function, a series of modified Tet-targeting (sgTetO) or non-targeting control (sgControl) sgRNA were generated, with 0 copy, 5 copies, 15 copies, 25 copies, and 47 copies of the 8-mer Pumilio homologue domain-binding sequence (PBS) for PUF (3-2) (also simply referred to as PUFa) [PBS32 or PBSa: SEQ ID NO:8 (5′-UGUAUgUA-3′)], PUF(6-2/7-2) (also simply referred to as PUFb) [PBS6272 or PBSb: SEQ ID NO:9 (5′-UugAUAUA-3′)].
Cells were transfected with dCas9-VP64 with the different sgRNA scaffolds, and were analyzed by fluorescent-activated cell sorting (FACS) two days after transfection (FIG. 1B).
Fusions of PUF(3-2)::VP64 and PUF(6-2/7-2)::VP64, which interacts with sgRNA (sgRNA-PBS32) with 5′-UGUAUgUA-3′ binding sites and sgRNA-PBS6272 with 5′-UugAUAUA-3′ binding sites, respectively, were created, and their activity to turn on tdTomato expression in conjunction with dCas9 was tested. In addition, two additional pairs, PUFw-VP64 recognizing PBSw (5′-UGUAUAUA-3′) and PUFc-VP64 recognizing PBSc (5′-UugAUgUA-3′), were also constructed to test their ability to activate the same TetO::tdTomato expression in conjunction with dCas9 (FIG. 1D).
Cell Culture for Experiments. HEK293T cells were cultivated in Dulbecco's modified Eagle's medium (DMEM)(Sigma) with 10% fetal bovine serum (FBS)(Lonza), 4% Glutamax (Gibco), 1% Sodium Pyruvate (Gibco) and penicillin-streptomycin (Gibco). Incubator conditions were 37° C. and 5% CO2. For activation experiments, cells were seeded into 12-well plates at 100,000 cells per well the day before being transfected with 200 ng of dCas9 construct, 100 ng of modified sgRNA and 100 ng of PUF-fusion with Attractene transfection reagent (Qiagen). After transfection, cells were grown for 48 hrs and harvested for either RNA extraction or fluorescent-activated cell sorting (FACS). […]
Fluorescent-Activated Cell Sorting. […] Samples were analyzed on a FACScalibur flow cytometer using CellQuest Pro software (BD Bioscience). […] were collected in each run.

[3] = system: SOX2; assay: SOX2 gene expression by quantitative reverse-transcription PCR after targeting Dnmt effectors to the SOX2 promoter; format: cell-based; conditions: with dCas9 and sgRNA-PBS targeting SOX2 promoter; compared with dCas9 direct fusions
Description: Establishment of a dCas9-expressing cell line. The day prior to transfection, Lenti-X 293T cells were seeded into 6-well plates at 1.2 million cells per well. The cells were transfected with the supercoiled packaging plasmids (pLP1 (gag/pol), pLP2 (rev), and VSV-G (envelope)) and a dCas9 lentiviral expression plasmid through Lipofectamine 3000 reagent (Invitrogen). At 6 h posttransfection, medium was exchanged for fresh. At 24 h posttransfection, 2 ml of medium containing the lentivirus were collected and centrifuged for 10 minutes at 2,000 rpm to remove cellular debris. The supernatant was filtered utilizing a […] pore filter (Millipore), and the lentivirus was frozen at −80° C. until needed. HEK293T cells, seeded into a 12-well plate at 150,000 cells per well, were transduced with 500 μl of the dCas9 lentivirus in culture medium supplemented with 5 μg/ml polybrene for 12 hours, and subsequently selected with Blasticidin antibiotics on the third day post transduction.
Transfection. HEK293T, and HEK293T/dCas9 cell lines were seeded into 12-well plates at 150,000 cells per well. […] At 3 day post-transfection, the cells were sorted for GFP (sgRNA expression constructs are marked by GFP) with fluorescence-activated cell sorting (FACS) and re-plated into 12 or 24-well plates.
Quantitative reverse-transcription PCR. […]

Nc1ncn([C@@H]2O[C@H](CO)[C@@H](O)[C@H]2O)c(=O)n1 [5′azacytidine, 5-Azacytidine]
bisulfite conversion frequency within hMLH1 promoter region [1]: increased bisulfite conversion frequency on multiple CpG sites

B1: PUFb-VP64: PUF(6-2/7-2) domain with NLS fused to VP64 (protein)
chain: MGILPPKKKRKVSRGRSRLLEDFRNNRYPNLQLREIAGHIMEFSQDQHGSRFIQLKLERATPAERQLVFNEILQAAYQLMVDVFGNYVIQKFFEFGSLEQKLALAERIRGHVLSLALQMYGCRVIQKALEFIPSDQQNEMVRELDGHVLKCVKDQNGNHVVQKCIECVQPQSLQFIIDAFKGQVFALSTHPYGCRVIQRILEHCLPDQTLPILEELHQHTEQLVQDQYGSYVIEHVLEHGRPEDKSKIVAEIRGNVLVLSQHKFANNVVQKCVTHASRTERAVLIDEVCTMNDGPHSALYTMMKDQYANYVVQKMIDVAEPGQRKIVMHKIRPHIATLRKYTYGKHILAKLEKYYMKNGVDLGGPAGSGRADALDDFDLDMLGSDALDDFDLDMLGSDALDDFDLDMLGSDALDDFDLDMLYID
transgene activation with 15, 20, and 47 copies of PBS [2]: slightly lower, albeit still substantial transgene activation

B2: Dnmt3a-PUF: Dnmt3a catalytic domain fused to the N-terminus of PUFa (protein)
chain: MGPANHDQEFDPPKVYPPVPAEKRKPIRVLSLFDGIATGLLVLKDLGIQVDRYIASEVCEDSITVGMVRHQGKIMYVGDVRSVTQKHIQEWGPFDLVIGGSPCNDLSIVNPARKGLYEGTGRLFFEFYRLLHDARPKEGDDRPFFWLFENVVAMGVSDKRDISRFLESNPVMIDAKEVSAAHRARYFWGNLPGMNRPLASTVNDKLELQECLEHGRIAKFSKVRTITTRSNSIKQGKDQHFPVFMNEKEDILWCTEMERVFGFPVHYTDVSNMSRLARQRLLGRSWSVPVIRHLFAPLKEYFACVIDGGGGSDPKKKRKVDPKKKRKVDPKKKRKVGSTGSRNDGGGGSGGGGSGGGGSGRAGILPPKKKRKVSRGRSRLLEDFRNNRYPNLQLREIAGHIMEFSQDQHGSRFIQLKLERATPAERQLVFNEILQAAYQLMVDVFGNYVIQKFFEFGSLEQKLALAERIRGHVLSLALQMYGSRVIEKALEFIPSDQQNEMVRELDGHVLKCVKDQNGNHVVQKCIECVQPQSLQFIIDAFKGQVFALSTHPYGCRVIQRILEHCLPDQTLPILEELHQHTEQLVQDQYGNYVIQHVLEHGRPEDKSKIVAEIRGNVLVLSQHKFASNVVEKCVTHASRTERAVLIDEVCTMNDGPHSALYTMMKDQYANYVVQKMIDVAEPGQRKIVMHKIRPHIATLRKYTYGKHILAKLEKYYMKNGVDLGDPKKKRKVDPKKKRKVGGRGGGGSGGGGSGGGGSGPA
repression of SOX2 gene expression [3]: more robust repression of SOX2 gene expression compared to direct fusions
